From publication PMC7148561
Several values for one entry are separate records, joined by “and”; a condition that tells them apart may be missing. Equal values may be shown once.

Tests used:
[1] = biological target: hHsp70 (human Hsp70A1), variant not told for the experiment (human) (UniProt P0DMV8); assay: SEC
[2] = biological target: the two labeling variants of hHsp70 containing the T204A mutation; assay: FRET or BRET
[3] = biological target: Cy3-labeled hHsp70 (E315C/I427C or I427C/K559C; variant not told for the printed rate); assay: FRET or BRET
[4] = biological target: hHsp70 NBD–SBDβ labeling variant E315C/I427C (human) (UniProt P0DMV8); assay: FRET or BRET
[5] = biological target: the two labeling variants of hHsp70 in the ATP-bound state (direct binding of JGF); assay: FRET or BRET

Substance	stoichiometry N (hHsp70 molecules per Hdj1 dimer) [1]	rate constant of direct binding [2]	apparent rate constant of the fast binding phase [3] [s⁻¹]	kon [4] [M⁻¹ s⁻¹]	apparent rate constant of direct binding [5]
Hdj1, human type II Hsp40 homolog, full-length (from UniProt P25685 1-340) (natural protein)	2	2.5 s⁻¹ and 1.5 s⁻¹	1.2	350000	
J+G/F-rich segment (JGF) of Hdj1, residues 1–141 (from UniProt P25685 1-141) (domain or fragment)					0.7 s⁻¹ and 1.6 s⁻¹
